The subject of one assay is human primary NK cells. The assay can be described thus: Gene expression by primary NK cells (real time qPCR, Taqman Assay). The following applies: 1 day; lunasin 20 μM; compared to cytokine alone. Format: cell-based. From the text: FIG. 3 Synergistic effects of lunasin and cytokines on gene expression by human primary NK cells. […] One day following the stimulation, the cell pellets were resuspended in Trizol Reagents for total RNA extraction. The first-strand cDNA was synthesized followed by real time qPCR using Taqman Assay with primers for IFNγ(IFNG), granzyme B (GZMB), granulysin (GNLY), chemokine (C-C motif) ligand 3 or CCL3 (CCL3), CCL4 (CCL4). Granulocyte-macrophage colony-stimulating factor or GM-CSF (CSF2) TGFβ (TGFB) and TGFβ receptor (TGFBR2) in ABI 7300 (Applied Biosystems by Life Technologies, Carlsbad CA) Data are presented as mean±SD from 2 duplicates. Results shown are representative over 5 different normal controls. […]
One day following the stimulation, the cell pellets were resuspended in Trizol Reagents for total RNA extraction. The first-strand cDNA was synthesized followed by real time qPCR using Taqman Assay with primers for IFNγ (IFNG), granzyme B (GZMB), granulysin (GNLY), chemokine (C-C motif) ligand 3 or CCL3 (CCL3), CCL4 (CCL4), Granulocyte-macrophage colony-stimulating factor or GM-CSF (CSF2), TGFβ (TGFB) and TGFβ receptor (TGFBR2) in ABI 7300 (Applied Biosystems by Life Technologies, Carlsbad, Calif.). Data are presented as mean±SD from duplicates. Results shown are representative over 5 different normal controls.
Following 1, 2, and 3 days of stimulation, the cell pellets were lysed in Trizol Reagents for total RNA extraction. The first-strand cDNA was synthesized followed by real time qPCR using Taqman Assay with primer for TGFB1 and TGFBR2 in ABI 7300. Results are presented as mean±SD from duplicates. […]
Freshly isolated human NK cells from peripheral blood mononuclear cells (PBMCs) of normal control using positive selection with CD56 magnetic beads (Miltenyi Biotec, Auburn, Calif.) were stimulated with medium only (−), IL-12 (10 ng/ml) or IL-12 (10 ng/ml)+lunasin (5 μM) for 1 day. The cell pellets were lysed in Trizol Reagents for total RNA extraction. The first-strand cDNA was synthesized followed by real time qPCR using Taqman Assay with primer for inhibitory receptors KIR3DL1 (upper panel) and KIR3DL2 (lower panel) in ABI 7300.
For orientation: Quantitative PCR measures a nucleic acid by following its amplification.

Another assay relates to mouse NK cells. The assay can be described thus: IFNγ produced by NK cells from tumor-bearing mice with or without etoposide chemotherapy (ELISA). Format: cell-based. The following applies: reduced Stat4; mouse IL-12 2 ng/ml or human IL-2 50 units/ml, lunasin 20 μM; 1 day. (In general: ELISA stands for enzyme-linked immunosorbent assay.)

Description for mouse NK cells: Mouse NK cells were positively selected from spleens of tumor-bearing mice with (+Eto) or without (−Eto) chemotherapeutic drug etoposide. Isolated NK cells were stimulated with mouse IL-12 at 2 ng/ml with (+) or without (−) lunasin peptide (A) or human IL-2 at 50 units/ml with (+) or without (−) lunasin at 20 μM (B). The production of IFNγ in the supernatant after 1 day of stimulation was determined using ELISA. Results are presented as mean±SD from 3 mice. ND is not detectable.

B1: IL-12 (protein, UniProt P43431 23-215; P43432 23-335, looked up)
Interleukin-12 subunit alpha: RVIPVSGPARCLSQSRNLLKTTDDMVKTAREKLKHYSCTAEDIDHEDITRDQTSTLKTCLPLELHKNESCLATRETSSTTRGSCLPPQKTSLMMTLCLGSIYEDLKMYQTEFQAINAALQNHNHQQIILDKGMLVAIDELMQSLNHNGETLRQKPPVGEADPYRVKMKLCILLHAFSTRVVTINRVMGYLSSA
Interleukin-12 subunit beta: MWELEKDVYVVEVDWTPDAPGETVNLTCDTPEEDDITWTSDQRHGVIGSGKTLTITVKEFLDAGQYTCHKGGETLSHSHLLLHKKENGIWSTEILKNFKNKTFLKCEAPNYSGRFTCSWLVQRNMDLKFNIKSSSSSPDSRAVTCGMASLSAEKVTLDQRDYEKYSVSCQEDVTCPTAEETLPIELALEARQQNKYENYSTSFFIRDIIKPDPPKNLQMKPLKNSQVEVSWEYPDSWSTPHSYFSLKFFVRIQRKKEKMKETEEGCNQKGAFLVEKTSTEVQCKGGNVCVQAQDRYYNSSCSKWACVPCRVRS
On to B1, for which the “GZMB (granzyme B) gene expression” value in the assay with human primary NK cells is reported as “no further induction of GZMB”. Besides, the “IFNγ production by NK cells from tumor-bearing mice following chemotherapy (+etoposide)” value with mouse NK cells was “secreted less IFNγ”.

Source of the values: patent US9173923B2, “Modulating innate immune cell activity by lunasin and selected cytokines” (Indiana University Research & Technology Corporation, priority 2011, dated 2015).
